According to patent publication US20260062463A1 (KANGYUAN BIOMEDICAL TECH DALIAN, published 2026):

T1: AAV8 (adeno-associated virus 8, Assembled 60-mer capsid of VP1/VP2/VP3 (nested products of one cap gene), amine-coupled to a CM5 chip; the letters give one VP1 subunit only.)
T1 construct: also called adeno-associated virus serotype 8
T1 chain: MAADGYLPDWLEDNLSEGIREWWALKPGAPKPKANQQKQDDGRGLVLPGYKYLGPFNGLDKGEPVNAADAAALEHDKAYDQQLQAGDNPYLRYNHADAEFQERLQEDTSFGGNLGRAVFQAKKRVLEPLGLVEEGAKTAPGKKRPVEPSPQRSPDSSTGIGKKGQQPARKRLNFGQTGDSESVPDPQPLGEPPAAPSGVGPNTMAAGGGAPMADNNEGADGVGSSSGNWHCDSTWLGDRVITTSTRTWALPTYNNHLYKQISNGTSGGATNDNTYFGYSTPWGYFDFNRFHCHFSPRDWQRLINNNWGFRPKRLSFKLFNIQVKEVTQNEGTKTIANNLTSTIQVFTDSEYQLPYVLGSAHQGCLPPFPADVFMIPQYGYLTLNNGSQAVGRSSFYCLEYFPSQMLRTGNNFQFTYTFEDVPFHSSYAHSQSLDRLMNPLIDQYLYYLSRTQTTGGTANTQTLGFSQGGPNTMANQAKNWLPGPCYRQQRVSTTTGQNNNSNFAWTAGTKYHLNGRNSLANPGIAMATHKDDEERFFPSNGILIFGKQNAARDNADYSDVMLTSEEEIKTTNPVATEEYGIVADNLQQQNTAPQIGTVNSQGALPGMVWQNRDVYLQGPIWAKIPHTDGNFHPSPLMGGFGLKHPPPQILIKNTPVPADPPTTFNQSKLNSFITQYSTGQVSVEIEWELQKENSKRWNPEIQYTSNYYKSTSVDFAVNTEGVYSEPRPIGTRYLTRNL


Legend:
Test in all cases: SPR, AAV amine-coupled to CM5 chip
AAV8 = target: T1, AAV8
AAV9 = target: T2, AAV9 (adeno-associated virus 9, Assembled 60-mer capsid of VP1/VP2/VP3 (nested products of one cap gene), amine-coupled to a CM5 chip; the letters give one VP1 subunit only.)
T2 construct: also called adeno-associated virus serotype 9

AAV5 = target: T3, AAV5 (adeno-associated virus 5, Assembled 60-mer capsid of VP1/VP2/VP3 (nested products of one cap gene), amine-coupled to a CM5 chip; the letters give one VP1 subunit only.)
T3 construct: also called adeno-associated virus serotype 5

Binder	Kd (AAV8) [nM]	koff (AAV8) [s⁻¹]	kon (AAV8) [M⁻¹ s⁻¹]	Kd (AAV9) [nM]	koff (AAV9) [s⁻¹]	kon (AAV9) [M⁻¹ s⁻¹]	Kd (AAV5) [nM]	koff (AAV5) [s⁻¹]	kon (AAV5) [M⁻¹ s⁻¹]
A4-D6 (bispecific antibody) VQLQESGGGLVQTGGSLRLSCAASGRAFSLNTMGWYRQAPGKWRELVATVTRGGSTNYAGSVKGRFTISRDNAKNTVYLQMNNLRPEDTAVYYCHVDEVRESSWTTSNLWGQGTQVTVSSGGGGSGGGGSGGGGSVQLQESGGGLVQTGGSLRLSCAASGRAFSLNTMGWYRQAPGKWRELVATVTRGGSTNYAGSVKGRFTISRDNAKNTVYLQMNNLRPEDTAVYYCHVDEVRESSWTTSNLWGQGTQVTVSSGGGGSGGGGSGGGGSVQLQESGGGLVQPGGSLRLSCAASGSIFTINSMGWYRQAPGKWRELVATVTRGGNTNYANSVKGRFTISRDNAKNTVYLQMNTLRPEDTAVYYCHLDEVRDSSWTTSNLWGQGTQVTVSSGGGGSGGGGSGGGGSVQLQESGGGLVQPGGSLRLSCAASGSIFSINSMGWYRQAPGKWRELVATVTRGGSTNYANSVKGRFTISRDNAKNTVYLQMNTLRPEDTAVYYCHLDEVRDSSWTTSNLWGQGTQVTVSS	1.02	1.63e-05	16000						
A4-D11 (other) VQLQESGGGLVQPGGSLRLSCAASGRGFSINTMGWYRQAPGKQRELVAAVTRGGTTNYADSVKGRFTISRDNAKNTVYLQMNSLRPEDTAVYYCHVDEVRQSSWTTSNLWGQGTQVTVSSGGGGSGGGGSGGGGSVQLQESGGGLVQPGGSLRLSCAASGSIFSINTMGWYRQAPGKQRELVAAVTRGGSTNYADSVKGRFTISRDNAKNTVYLQMNSLRPEDTAVYYCHVDEVRQSSWTTSNLWGQGTQVTVSSGGGGSGGGGSGGGGSVQLQESGGGLVQPGGSLRLSCAASGSIFIINTMGWYRRAPGKQRELVAAVTRGGSTNYADSVKGRFTISRDNAKNTVYLQMNSLRPEDTAVYYCHVDEVRQSSWTTSNLWGQGTQVTVSSGGGGSGGGGSGGGGSVQLQESGGGLVQPGGSLRLSCAASGSSFVINTMGWYRQAPGKQRELVAAVTRGGSTNYADSVKGRFTISRDNAKNTVYLQMNSLRPEDTAVYYCHVDEVRQSSWTTSNLWGQGTQVTVSS	0.319	1.5e-05	47000						
A4-D9 (bispecific antibody) VQLQESGGGLVHSGGSLRLSCAASGSMFSLNTMGWYRQAPGKQRELVATITRGGGTSYADSVKGRFTISRDNAKNTVYLQMNSLRPEDTAVYYCHVDELRQSSWTTSNLWGQGTQVTVSSGGGGSGGGGSGGGGSVQLQESGGGLVQPGGSLRLSCAASGSRFSLNTMGWYRQAPGKQRELVATVTRGGSTNYADFVKGRFTISRDNAKNTVYLQMNSLRPEDTAVYYCHVDELRESGWTTSNLWGQGTQVTVSSGGGGSGGGGSGGGGSVQLQESGGGLVQPGGSLRLSCAASGSRFSLNTMGWYRQAPGKQRELVATVTRGGSTNYADFVKGRFTISRDNAKNTVYLQMNSLRPEDTAVYYCHVDELRESGWTTSNLWGQGTQVTVSSGGGGSGGGGSGGGGSVQLQESGGGLVQTGGSLRLSCAASGRAFSLNTMGWYRQAPGKWRELVATVTRGGSTNYAGSVKGRFTISRDNAKNTVYLQMNNLRPEDTAVYYCHVDEVRESSWTTSNLWGQGTQVTVSS	0.318	9.9e-06	31100						
A4-B2 (bispecific antibody) VQLQESGGGLVQAGGSLRLSCAASGSRFSINTMGWYRQAPGKQREFVATVTRGGNTNYAESVKGRFTISRDNAKNTVYLQMNSLRPEDTAVYYCHVDEVRDSSWTTSNIWGQGTQVTVSSGGGGSGGGGSGGGGSVQLQESGGGLVQAGGSLRLSCAASGSTFSINTMGWYRQAPGKQRELVATITRGGNTNYADSVKGRFTISRDNAKNTVYLQMNSLRPEDTAVYYCHVDEVRQSSWTTSNLWGQGTQVTVSS	1.02	0.00014	138000	8.35	0.0008	95800	7.38	0.00117	159000
A4-D7 (bispecific antibody) VQLQESGGGLVQTGGSLRLSCAASGRAFSLNTMGWYRQAPGKWRELVATVTRGGSTNYAGSVKGRFTISRDNAKNTVYLQMNNLRPEDTAVYYCHVDEVRESSWTTSNLWGQGTQVTVSSGGGGSGGGGSGGGGSVQLQESGGGLVQPGGSLRLSCAASGSIFTINSMGWYRQAPGKWRELVATVTRGGNTNYANSVKGRFTISRDNAKNTVYLQMNTLRPEDTAVYYCHLDEVRDSSWTTSNLWGQGTQVTVSSGGGGSGGGGSGGGGSVQLQESGGGLVQPGGSLRLSCAASGSIFSINSMGWYRQAPGKWRELVATVTRGGSTNYANSVKGRFTISRDNAKNTVYLQMNTLRPEDTAVYYCHLDEVRDSSWTTSNLWGQGTQVTVSSGGGGSGGGGSGGGGSVQLQESGGGLVQTGGSLRLSCAASGRAFSLNTMGWYRQAPGKWRELVATVTRGGSTNYAGSVKGRFTISRDNAKNTVYLQMNNLRPEDTAVYYCHVDEVRESSWTTSNLWGQGTQVTVSS	1.41	1.79e-05	12700						
A4-D8 (bispecific antibody) VQLQESGGGLVQPGGSLRLSCAASGSRFSLNTMGWYRQAPGKQRELVATVTRGGSTNYADSVKGRFTISRDNAKNTVYLQMNSLRPEDTAVYYCHVDELRESGWTTSNLWGQGTQVTVSSGGGGSGGGGSGGGGSVQLQESGGGLVQPGGSLRLSCAASGSRFSLNTMGWYRQAPGKQRELVATVTRGGSTNYADFVKGRFTISRDNAKNTVYLQMNSLRPEDTAVYYCHVDELRESGWTTSNLWGQGTQVTVSSGGGGSGGGGSGGGGSVQLQESGGGLVHSGGSLRLSCAASGSMFSLNTMGWYRQAPGKQRELVATITRGGGTSYADSVKGRFTISRDNAKNTVYLQMNSLRPEDTAVYYCHVDELRQSSWTTSNLWGQGTQVTVSSGGGGSGGGGSGGGGSVQLQESGGGLVQPGGSLRLSCAASGSRFSLNTMGWYRQAPGKQRELVATVTRGGSTNYADFVKGRFTISRDNAKNTVYLQMNSLRPEDTAVYYCHVDELRESGWTTSNLWGQGTQVTVSS	0.228	1.1e-05	48200						
A4-D1 (VHH) VQLQESGGGLAQAGGSLRLSCAASGRGFSINTMGWYRQAPGKQRELVAAVTRGGTTNYADSVKGRFTISRDNAKNTVYLQMNSLRPEDTAVYYCHVDEVRQSSWTTSNLWGQGTQVTVSSGGGGSGGGGSGGGGSVQLQESGGGLAQAGGSLRLSCAASGRGFSINTMGWYRQAPGKQRELVAAVTRGGTTNYADSVKGRFTISRDNAKNTVYLQMNSLRPEDTAVYYCHVDEVRQSSWTTSNLWGQGTQVTVSSGGGGSGGGGSGGGGSVQLQESGGGLAQAGGSLRLSCAASGRGFSINTMGWYRQAPGKQRELVAAVTRGGTTNYADSVKGRFTISRDNAKNTVYLQMNSLRPEDTAVYYCHVDEVRQSSWTTSNLWGQGTQVTVSSGGGGSGGGGSGGGGSVQLQESGGGLAQAGGSLRLSCAASGRGFSINTMGWYRQAPGKQRELVAAVTRGGTTNYADSVKGRFTISRDNAKNTVYLQMNSLRPEDTAVYYCHVDEVRQSSWTTSNLWGQGTQVTVSS							0.0576	2.2e-06	38200
A4-D3 (VHH) VQLQESGGGLAQAGGSLRLSCAASGRGFSINTMGWYRQAPGKQRELVAAVTRGGTTNYADSVKGRFTISRDNAKNTVYLQMNSLRPEDTAVYYCHVDEVRQSSWTTSNLWGQGTQVTVSSGGGGSGGGGSGGGGSVQLQESGGGLAQAGGSLRLSCAASGRGFSINTMGWYRQAPGKQRELVAAVTRGGTTNYADSVKGRFTISRDNAKNTVYLQMNSLRPEDTAVYYCHVDEVRQSSWTTSNLWGQGTQVTVSSGGGGSGGGGSGGGGSVQLQESGGGLAQAGGSLRLSCAASGRGFSINTMGWYRQAPGKQRELVAAVTRGGTTNYADSVKGRFTISRDNAKNTVYLQMNSLRPEDTAVYYCHVDEVRQSSWTTSNLWGQGTQVTVSSGGGGSGGGGSGGGGSVQLQESGGGLVQPGGSLRLSCAASGRGFSINTMGWYRQAPGKQRELVAAVTRGGTTNYADSVKGRFTISRDNAKNTVYLQMNSLRPEDTAVYYCHVDEVRQSSWTTSNLWGQGTQVTVSS							0.209	3.6e-06	17300
A4-D4 (VHH) VQLQESGGGLAQAGGSLRLSCAASGRGFSINTMGWYRQAPGKQRELVAAVTRGGTTNYADSVKGRFTISRDNAKNTVYLQMNSLRPEDTAVYYCHVDEVRQSSWTTSNLWGQGTQVTVSSGGGGSGGGGSGGGGSVQLQESGGGLVQPGGSLRLSCAASGRGFSINTMGWYRQAPGKQRELVAAVTRGGTTNYADSVKGRFTISRDNAKNTVYLQMNSLRPEDTAVYYCHVDEVRQSSWTTSNLWGQGTQVTVSSGGGGSGGGGSGGGGSVQLQESGGGLAQAGGSLRLSCAASGRGFSINTMGWYRQAPGKQRELVAAVTRGGTTNYADSVKGRFTISRDNAKNTVYLQMNSLRPEDTAVYYCHVDEVRQSSWTTSNLWGQGTQVTVSSGGGGSGGGGSGGGGSVQLQESGGGLAQAGGSLRLSCAASGRGFSINTMGWYRQAPGKQRELVAAVTRGGTTNYADSVKGRFTISRDNAKNTVYLQMNSLRPEDTAVYYCHVDEVRQSSWTTSNLWGQGTQVTVSS							0.657	1.73e-05	26300
